# Laboratory results as given in patent US20170037440A1 (MEDIZINISCHE HOCHSCHULE HANNOVER, published 2017).
# B1: Δ69-CsaBco-His6 (enzyme)
# chain: MLIPINFFNFEYIVKKLNNQNAIGVYILPSNLTLKPALCILESHKEDFLNKFLLTISSENLKLQYKFNGQIKNPKSVNEIWTDLFSIAHVDMKLSTDRTLSSSISQFWFRLEFCKEDKDFILFPTANRYSRKLWKHSIKNNQLFKEGIRNYSEISSLPYEEDHNFDIDLVFTWVNSEDKNWQELYKKYKPDFNSDATSTSRFLSRDELKFALRSWEMNGSFIRKIFIVSNCAPPAWLDLNNPKIQWVYHEEIMPQSALPTFSSHAIETSLHHIPGISNYFIYSNDDFLLTKPLNKDNFFYSNGIAKLRLEAWGNVNGECTEGEPDYLNGARNANTLLEKEFKKFTTKLHTHSPQSMRTDILFEMEKKYPEEFNRTLHNKFRSLDDIAVTGYLYHHYALLSGRALQSSDKTELVQQNHDFKKKLNNVVTLTKERNFDKLPLSVCINDGADSHLNEEWNVQVIKFLETLFPLPSSFEKLEHHHHHH
# notes: also called ΔN69-CsaB; dN69-CsaB
# Target: the molecule itself
# Test: analytical size exclusion chromatography, self-association
protein,measurement,value
B1,binding result,binds
